Target: CD20, on SUP-B15 CD20+ cells (UniProt P11836)
Assay: cell-based or functional assay

Chain of UniProt P11836 (P11836 whole entry): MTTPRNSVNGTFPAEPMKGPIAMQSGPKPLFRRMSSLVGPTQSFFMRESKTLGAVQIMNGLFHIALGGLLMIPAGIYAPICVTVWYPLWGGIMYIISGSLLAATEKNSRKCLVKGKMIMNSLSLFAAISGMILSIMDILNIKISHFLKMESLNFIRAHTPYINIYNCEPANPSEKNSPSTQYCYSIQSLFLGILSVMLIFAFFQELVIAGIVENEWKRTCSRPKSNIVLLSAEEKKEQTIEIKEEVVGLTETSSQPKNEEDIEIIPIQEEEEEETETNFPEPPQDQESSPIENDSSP

ADCC by polyclonal BCMA.CAR t-haNK cells (quadracistronic): 60% | ADCC by polyclonal BCMA.CAR t-haNK cells (tricistronic): 55%
Substance: rituximab (antibody)
